Source: PMC5959852

Key:
[1] = biological target: TAZ1 (transcriptional adaptor zinc-binding 1) domain of CREB binding protein (CBP) (human) (UniProt Q92793); experiment: ITC; 15 µM TAZ1 in the cell, 149 µM Hif-1α CAD (L813A) in the syringe; 293 K; 20 mM HEPES pH 6.9, 1 mM TCEP, 190 mM NaCl; one-to-one model
[2] = biological target: TAZ1 (transcriptional adaptor zinc-binding 1) domain of CREB binding protein (CBP) (human) (UniProt Q92793); experiment: stopped-flow fluorimetry (displacement); complex TAZ1/Hif-1α CAD variant (0.75 µM/0.5 µM) mixed with excess TAZ1 W418Y (10-50 µM); kobs at excess equals apparent koff; 293 K; 20 mM HEPES pH 6.9, 1 mM TCEP, 190 mM NaCl
[3] = biological target: TAZ1 (transcriptional adaptor zinc-binding 1) domain of CREB binding protein (CBP) (human) (UniProt Q92793); experiment: stopped-flow fluorimetry (association kinetics); TAZ1 constant at 0.5-0.9 µM, Hif-1α CAD variant varied 1-15 µM; Trp-418 fluorescence of TAZ1; 293 K; 20 mM HEPES pH 6.9, 1 mM TCEP, 190 mM NaCl; apparent kon from the fast phase; Kd = koff^app/kon^app with koff^app from the displacement experiments

Chain of Hif-1α CAD hydroxylated at Asn-803 (Q16665 776-826): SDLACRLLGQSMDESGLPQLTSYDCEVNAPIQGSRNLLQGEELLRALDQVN
Chain of C-terminal activation domain of hypoxia inducible factor 1α (Hif-1α CAD), wild type (Q16665 776-826): as above

| Substance | Kd [1] [nM] | koff [2] [s⁻¹] | Kd [3] [nM] | kon [3] [M⁻¹ s⁻¹] |
| --- | --- | --- | --- | --- |
| Hif-1α CAD L813A (from UniProt Q16665 776-826) (domain or fragment) | 144 | 1.17 | 137 | 8.52e+06 |
| Hif-1α CAD L778A (from UniProt Q16665 776-826) (domain or fragment) |  | 0.0294 | 3.65 | 8.06e+06 |
| Hif-1α CAD M787A (from UniProt Q16665 776-826) (domain or fragment) |  | 0.0324 | 4.83 | 6.7e+06 |
| Hif-1α CAD L783A (from UniProt Q16665 776-826) (domain or fragment) |  | 0.0346 | 3.6 | 9.62e+06 |
| Hif-1α CAD I806V (from UniProt Q16665 776-826) (domain or fragment) |  | 0.0577 | 5.93 | 9.73e+06 |
| Hif-1α CAD T796S (from UniProt Q16665 776-826) (domain or fragment) |  | 0.0267 | 3.23 | 8.27e+06 |
| C-terminal activation domain of hypoxia inducible factor 1α (Hif-1α CAD), wild type (from UniProt Q16665 776-826) (domain or fragment) |  | 0.0297 | 3.36 | 8.83e+06 |
| Hif-1α CAD L782A (from UniProt Q16665 776-826) (domain or fragment) |  | 0.0336 | 4.56 | 7.36e+06 |
| Hif-1α CAD L795A (from UniProt Q16665 776-826) (domain or fragment) |  | 6.74 | 1100 | 6.12e+06 |
| Hif-1α CAD C800A (from UniProt Q16665 776-826) (domain or fragment) |  | 0.116 | 17.7 | 6.55e+06 |
| Hif-1α CAD V825A (from UniProt Q16665 776-826) (domain or fragment) |  | 0.022 | 2.12 | 1.04e+07 |
| Hif-1α CAD L818A (from UniProt Q16665 776-826) (domain or fragment) |  | 1.27 | 205 | 6.23e+06 |
| Hif-1α CAD V802A (from UniProt Q16665 776-826) (domain or fragment) |  | 0.0995 | 13.7 | 7.28e+06 |
| Hif-1α CAD L819A (from UniProt Q16665 776-826) (domain or fragment) |  | 0.141 | 23.1 | 6.1e+06 |
| Hif-1α CAD C780A (from UniProt Q16665 776-826) (domain or fragment) |  | 0.0361 | 3.78 | 9.56e+06 |
| Hif-1α CAD L812A (from UniProt Q16665 776-826) (domain or fragment) |  | 0.509 | 71.5 | 7.12e+06 |
| Hif-1α CAD hydroxylated at Asn-803 (from UniProt Q16665 776-826) (domain or fragment) |  | 1.32 | 172 | 7.7e+06 |
| Hif-1α CAD L792A (from UniProt Q16665 776-826) (domain or fragment) |  | 0.92 | 160 | 5.75e+06 |
